Consider one molecule from patent US20090191195A1 (MacroGenics, published 2009).

The assay has as its target T1, human FcγRIIB (human, UniProt P31994 43-310).
T1 construct: whole, on cells; Native receptor on human cells or in frozen tissue sections; also called CD32B
T1 sequence (looked up): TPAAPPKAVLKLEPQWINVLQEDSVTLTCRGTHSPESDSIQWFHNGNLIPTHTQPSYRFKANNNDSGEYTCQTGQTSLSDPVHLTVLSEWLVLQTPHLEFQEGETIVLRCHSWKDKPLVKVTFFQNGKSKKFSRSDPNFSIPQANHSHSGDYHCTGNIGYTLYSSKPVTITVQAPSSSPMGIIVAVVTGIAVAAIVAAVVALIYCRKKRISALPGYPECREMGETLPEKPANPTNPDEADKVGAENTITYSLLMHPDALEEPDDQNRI
Put plainly: immunohistochemistry, frozen lymph node, patient MG04-CHTN-19; grade = share of positive cells. As to the method: The remaining portions of these samples were placed in cryomolds and embedded in OCT cryocompound (Tissue-Tek). Once the blocks were ready, each was sectioned under a Cryostat (Leica Microsystems) at 6 microns. The slides were placed in 4° C. acetone and fixed for 10 minutes. Hours after fixation the slides were air dried and washed with phosphate buffer saline (PBS). Then endogenous peroxide activity was blocked by a 30 minute incubation in a 0.3% hydrogen peroxide solution. The slides were washed in PBS and incubated for 30 minutes with 10% normal goat serum in 2% normal human serum. After this step, the slides were divided in two groups. Two monoclonal antibodies were utilize and incubated on the same tissue in parallel, an anti-CD20 (1F5—a hybridoma, ATCC No. HB-9645, purified at Macrogenics) and the murine monoclonal anti-CD32B antibody, 2B6. Each group was incubated with one monoclonal antibody and their respective Isotype control, IgG1 (BD Biosciences, San Jose, Calif.) for the 2B6/anti-CD32B group and IgG2a (BD Biosciences) for the 1F5/anti-CD20 group. Mouse IgG1 and murine IgG2a were used as Isotype controls for anti-CD32B and anti-CD20, respectively. After one hour of incubation at room temperature, the slides were washed in PBS and incubated with a secondary antibody Goat anti Mouse labeled peroxidase (Jackson ImmunoResearch Laboratories, West Grove, Pa.). […]

B1: monoclonal antibody produced by clone 2B6 (ATCC accession number PTA-4591) (antibody, V domains shown)
VH: QVQLQQPVTELVRPGASVMLSCKASDYPFTNYWIHWVKQRPGQGLEWIGVIDPSDTYPNYNKKFKGKATLTVVVSSSTAYMQLSSLTSDDSAVYYCARNGDSDYYSGMDYWGQGTSVTVSS
VL: DILLTQSPAILSVSPGERVSFSCRTSQSIGTNIHWYQQRTNGFPRLLIKNVSESISGIPSRFSGSGSGTDFILSINSVESEDIADYYCQQSNTWPFTFGGGTKLEIK
notes: Mouse hybridoma antibody; mouse IgG1 was used as its isotype control; also called murine monoclonal anti-CD32B antibody, 2B6; anti-CD32B
With B1, the binding result is on record as “binds”.
